A word on the IC50: it is the concentration at which inhibition is half-maximal. Lower therefore signals greater potency in that assay. Usually Kd stands for the equilibrium constant for the complex coming apart. Read a low Kd as a tighter complex.

Bridge positions count the residues as written; N and C are the ends. Ends that are not written are not given here.

Experiment [1] concerns the target T1, VEGFR-2/NP-1 co-expressed (human, UniProt P35968). As to the kind of experiment: competition, COS-1.
The target in experiment [2] is T2, VEGFR-2 (human, UniProt P35968).
T2 chain: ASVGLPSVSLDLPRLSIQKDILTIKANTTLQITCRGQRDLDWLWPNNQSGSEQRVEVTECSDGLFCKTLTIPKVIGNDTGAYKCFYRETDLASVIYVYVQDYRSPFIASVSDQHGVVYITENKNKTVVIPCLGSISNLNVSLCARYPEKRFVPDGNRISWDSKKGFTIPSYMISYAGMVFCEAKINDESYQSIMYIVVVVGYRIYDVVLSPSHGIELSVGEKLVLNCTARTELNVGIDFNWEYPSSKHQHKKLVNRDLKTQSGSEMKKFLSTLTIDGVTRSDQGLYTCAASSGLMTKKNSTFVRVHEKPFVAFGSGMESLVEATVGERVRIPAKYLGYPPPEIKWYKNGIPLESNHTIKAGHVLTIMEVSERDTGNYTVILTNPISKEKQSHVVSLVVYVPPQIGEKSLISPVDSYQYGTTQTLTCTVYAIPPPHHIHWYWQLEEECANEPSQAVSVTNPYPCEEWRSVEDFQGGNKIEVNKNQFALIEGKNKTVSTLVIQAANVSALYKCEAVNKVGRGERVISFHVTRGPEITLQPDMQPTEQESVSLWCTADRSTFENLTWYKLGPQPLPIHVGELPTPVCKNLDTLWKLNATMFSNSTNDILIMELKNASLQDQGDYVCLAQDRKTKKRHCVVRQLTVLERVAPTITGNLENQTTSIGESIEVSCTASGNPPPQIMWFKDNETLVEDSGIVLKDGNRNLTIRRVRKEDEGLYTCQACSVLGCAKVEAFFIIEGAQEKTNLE
Put plainly: competition, COS-1.

Experiment [3] has as its target T3, Neuropilin-1 (NP-1) (human, UniProt O14786). As to the kind of experiment: competition, Balb/c.
Experiment [4] deals with T1, VEGFR-2/NP-1 co-expressed. Put plainly: competition, 125I-VEGF165.
Experiment [5] deals with T1, VEGFR-2/NP-1 co-expressed. As to the kind of experiment: competition, Balb/c.
Target sequence in this assay (chain, as listed by the source, chain 2 of 2, one chain of several): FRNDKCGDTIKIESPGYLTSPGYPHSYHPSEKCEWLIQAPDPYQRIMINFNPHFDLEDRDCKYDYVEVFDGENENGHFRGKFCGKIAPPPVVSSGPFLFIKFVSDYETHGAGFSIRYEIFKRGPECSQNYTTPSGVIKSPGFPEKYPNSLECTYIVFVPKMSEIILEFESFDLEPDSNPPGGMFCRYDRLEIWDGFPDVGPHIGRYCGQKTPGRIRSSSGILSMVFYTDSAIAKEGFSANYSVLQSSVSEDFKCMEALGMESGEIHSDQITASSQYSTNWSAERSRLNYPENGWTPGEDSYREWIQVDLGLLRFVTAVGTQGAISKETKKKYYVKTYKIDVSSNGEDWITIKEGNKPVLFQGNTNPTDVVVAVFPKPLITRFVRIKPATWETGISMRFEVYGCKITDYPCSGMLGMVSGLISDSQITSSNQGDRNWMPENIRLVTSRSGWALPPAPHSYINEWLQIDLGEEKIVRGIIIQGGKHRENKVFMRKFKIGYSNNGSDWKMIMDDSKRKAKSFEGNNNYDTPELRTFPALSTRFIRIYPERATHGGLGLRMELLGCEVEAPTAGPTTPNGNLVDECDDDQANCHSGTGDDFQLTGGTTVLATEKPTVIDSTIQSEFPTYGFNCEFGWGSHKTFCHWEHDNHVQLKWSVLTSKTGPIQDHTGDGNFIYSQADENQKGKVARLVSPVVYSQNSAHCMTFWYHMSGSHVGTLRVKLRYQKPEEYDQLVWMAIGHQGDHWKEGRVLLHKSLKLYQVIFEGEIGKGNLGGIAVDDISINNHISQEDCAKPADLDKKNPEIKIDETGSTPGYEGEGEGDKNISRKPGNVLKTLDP
The target in experiment [6] is T3, Neuropilin-1 (NP-1). Put plainly: competition, COS-1.
The target in experiment [7] is T2, VEGFR-2. As to the kind of experiment: competition, COS-1 cells, 4C.
Experiment [8] deals with T3, Neuropilin-1 (NP-1). Put plainly: competition, COS-1. The source holds these as a separate data set.
The target of experiment [9] is T3, Neuropilin-1 (NP-1). Put plainly: other, radioligand saturation COS-1.

T3 sequence (O14786 22-923): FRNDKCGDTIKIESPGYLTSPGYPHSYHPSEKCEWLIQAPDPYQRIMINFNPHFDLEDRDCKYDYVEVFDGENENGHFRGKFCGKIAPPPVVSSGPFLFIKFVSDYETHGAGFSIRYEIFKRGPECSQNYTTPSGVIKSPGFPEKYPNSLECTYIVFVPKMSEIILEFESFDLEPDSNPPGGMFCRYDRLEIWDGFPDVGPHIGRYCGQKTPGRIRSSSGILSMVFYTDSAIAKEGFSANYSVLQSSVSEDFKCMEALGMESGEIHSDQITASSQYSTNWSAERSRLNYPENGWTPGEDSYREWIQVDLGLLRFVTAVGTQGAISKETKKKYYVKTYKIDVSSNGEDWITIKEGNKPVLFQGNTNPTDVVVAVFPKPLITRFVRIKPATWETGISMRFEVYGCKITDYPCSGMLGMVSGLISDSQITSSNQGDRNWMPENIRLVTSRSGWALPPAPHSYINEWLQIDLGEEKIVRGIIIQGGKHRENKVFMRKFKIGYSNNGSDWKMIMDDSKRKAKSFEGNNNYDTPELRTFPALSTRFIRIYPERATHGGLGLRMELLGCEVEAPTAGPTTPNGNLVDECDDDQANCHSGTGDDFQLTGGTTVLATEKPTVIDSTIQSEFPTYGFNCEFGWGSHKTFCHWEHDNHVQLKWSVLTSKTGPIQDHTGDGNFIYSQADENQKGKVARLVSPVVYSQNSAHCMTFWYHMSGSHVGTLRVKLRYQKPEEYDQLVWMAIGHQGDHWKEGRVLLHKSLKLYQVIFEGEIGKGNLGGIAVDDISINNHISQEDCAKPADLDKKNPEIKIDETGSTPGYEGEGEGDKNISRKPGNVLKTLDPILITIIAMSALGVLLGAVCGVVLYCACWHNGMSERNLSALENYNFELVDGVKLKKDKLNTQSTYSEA

B1: AS-3 (peptide)
chain: RRPKGRGKRAAAKQRPSDKPRR
B1: in experiment [1], the binding result is “no binding”.

B2: P6V8-3NCSC13C18 (peptide)
chain: KGRGKRRRECQRPSCKPRR
modifications: disulfide 10-15
For the molecule B2, in [2], the binding result is recorded as “no binding”.

B3: P6V8-3N (peptide)
chain: KGRGKRRREKQRPCDKPRR
In the case of B3, the IC50 in experiment [3] was found to be 254 nM.

B4: P6V8-3NCSA7,8,10,12 (peptide)
chain: KGRGKRAAEAQAPSDKPRR
Regarding B4, the binding result in experiment [2] is reported as “no binding”.

B5: P6V8-3NCSA3A6 (peptide)
chain: KGAGKARREKQRPSDKPRR
For B5, in experiment [2], the binding result is reported as “no binding”.

B6: AS-4A (peptide)
chain: RRPKGRGKRRREKQRAAAKPRR
As to B6, the binding result in [2] is reported as “no binding”.

B7: P6V8-9N (peptide)
chain: RREKQRPCDKPRR
As to B7, the binding result in experiment [2] was “no binding”.

B8: P6P7 (peptide)
chain: RRPKGRGKRRREKQRPDAVPRR
B8 had a half-inhibitory concentration (IC50) in [4] of 1170 nM.

B9: P6V8-3NCS1-7CCA1A5 (peptide)
chain: CAGRGARCREKQRPSDKPRR
modifications: disulfide 1-8
For the molecule B9, the binding result in experiment [2] was “no binding”.

B10: AS-4 (peptide)
chain: RRPKGRGKRRREAAAPSDKPRR
Turning to B10, the IC50 turned out to be 17.8 nM in [3] and 300 nM in experiment [5]. The binding result in experiment [2] is “no binding”.

B11: V8 (peptide)
chain: RPCDKPRR
As to B11, the binding result in [2] and in experiment [6] was “no binding” each time.

B12: V8CS (peptide)
chain: RPSDKPRR
With B12, in experiment [2], the binding result is on record as “no binding”.

B13: RAND1 (peptide)
chain: PKRSRRKGQPRPRGRREKRDRK
In the case of B13, the binding result in [2] is “no binding”.

B14: VEGF121 (protein)
chain: APMAEGGGQNHHEVVKFMDVYQRSYCHPIETLVDIFQEYPDEIEYIFKPSCVPLMRCGGCCNDEGLECVPTEESNITMQIMRIKPHQGQHIGEMSFLQHNKCECRPKKDRARQEKCDKPRR
In turn, B14 displayed an IC50 in [7] of 0.312 nM. In addition, the binding result in experiment [6] and in [1] was “no binding” each time.

B15: P6V8-3NCSA1A5 (peptide)
chain: AGRGARRREKQRPSDKPRR
For the molecule B15, the binding result in [2] was “no binding”.

B16: P6V8-3NCS1-7CCA5 (peptide)
chain: CKGRGARCREKQRPSDKPRR
modifications: disulfide 1-8
As to B16, the binding result in [2] is listed as “no binding”.

B17: VEGF165 (protein)
chain: APMAEGGGQNHHEVVKFMDVYQRSYCHPIETLVDIFQEYPDEIEYIFKPSCVPLMRCGGCCNDEGLECVPTEESNITMQIMRIKPHQGQHIGEMSFLQHNKCECRPKKDRARQENPCGPCSERRKHLFVQDPQTCKCSCKNTDSRCKARQLELNERTCRCDKPRR
On to B17, for which the figures for the IC50 in experiment [3] and in experiment [8] were 0.158 nM and 0.582 nM, respectively. In addition, the Kd in experiment [9] worked out at 2.09 nM.

B18: P6V8-3NCSA1,5,7,8,12 (peptide)
chain: AGRGARAAEKQAPSDKPRR
For B18, in experiment [2], the binding result is listed as “no binding”.

B19: (cap)P6V8-3NCS1-7CC (peptide)
chain: CKGRGKRCREKQRPSDKPRR
modifications: disulfide 1-8; also: capped amino and carboxyl termini, chemistry of caps not given here
Consider B19, for which, in [2], the binding result was “no binding”.

B20: P6V8-3NCSA3A5 (peptide)
chain: KGAGARRREKQRPSDKPRR
B20: the binding result in experiment [2] is on record as “no binding”.

B21: P6 (peptide)
chain: RRPKGRGKRRREKQRP
In [4], B21 yielded an IC50 of 12200 nM.

B22: AS-1 (peptide)
chain: RRPAAAGKRRREKQRPSDKPRR
B22: in experiment [2], the binding result is reported as “no binding”.

B23: P6V8-3NCS1-7CCA1 (peptide)
chain: CAGRGKRCREKQRPSDKPRR
modifications: disulfide 1-8
Consider B23, for which, in experiment [2], the binding result is on record as “no binding”.

B24: (cap)P6V8-3NCS (peptide)
chain: KGRGKRRREKQRPSDKPRR
modifications: also: (cap), group not given here
Take B24: the binding result in experiment [2] is recorded as “no binding”.

B25: P6V8-3NCSA1A6 (peptide)
chain: AGRGKARREKQRPSDKPRR
In the case of B25, in experiment [2], the binding result is “no binding”.

Values taken from patent publication US7052705 (dated 2006).
